± gives the uncertainty stated by the source.

This data set is described as follows: amyloid nucleation score (Sup35N fusion, yeast selection) (log enrichment); library NNK1; higher = more nucleation; inactive = no reads after selection. Put shortly: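 Plasmid inserts were Illumina-sequenced at input and output from psi-negative yeast expressing Sup35N fused to peptides of 20 random codons. The yeast were induced with 100 μM copper sulfate for 24 hours and grown 7 days at 30°C on medium lacking adenine and uracil, and sequences with under 100 input reads were excluded. Nucleation score is the DiMSum log enrichment of output over input reads, centred on the mode score of non-aggregating sequences.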
As to SPNLI, the amyloid nucleation score came out at 0.344 ± 0.9.
Next, LYEFRGGTHVGSDFSDVVFV: 1.05 ± 0.47; RGMSTNSRECHNMCFQVGV: 0.228 ± 0.49.
With NILFCWMGTMYPLLLSAYGR the figure was -0.793 ± 0.48; with SFMAVSKGFMTIISSYYLC, -0.662 ± 0.32; with PLFLQCLWKNSLDLGMKDLS, -0.327 ± 1.4.
Next, ERNRHKVIMFMTSPWEMVIL: -1.06 ± 2.4; RNLIGLV: 0.318 ± 0.68.
The substance SYVIGNTGGSIKSEARGWDI gave an amyloid nucleation score of 0.071 ± 0.35.
With SSSFRCAFSSVA the figure was 0.994 ± 0.69.
SYGLCMMAFLSLDAS returned an amyloid nucleation score of 0.517 ± 0.28.
With PMLFGVGRSFE the figure was -0.377 ± 0.27; with LFALQGHGILSVHSFVRHWG, 0.165 ± 1.1; with ANGADCYSLSKTEYYYGKTL, -0.129 ± 1.6.
With GICLKMYYVSACWESNVDTI the figure was 1.88 ± 0.18.
TRVYIYRTGIWFYLTSNSFT yielded an amyloid nucleation score of 0.577 ± 0.43.
With TSYQA the figure was -0.115 ± 0.22; with LWGLVRSFFDIDNLKGFRTE, -0.257 ± 1.9.
With NIYNVRLIVSH, the amyloid nucleation score is -0.018 ± 0.54.
Take LFLNMNPVLDTIIPFGWSSV: the amyloid nucleation score is -0.128 ± 0.56.
With ALKFPMWDSVEYGDCVGSLI the entry was “inactive”; with MLEDNLRVTTWPY, -0.407 ± 0.39.
In turn, PCSSFVNCKIMFLTLMDVVW had an amyloid nucleation score of 7.739 ± 0.056.
Regarding VNLGVRAGGLCRHAEKGDMT, the amyloid nucleation score is -0.364 ± 0.53.
Next, LQCSCLTVWLQNRPDQLSPS: 0.1 ± 0.73; NHVSHWMLSSGKASRYHTRR: 0.142 ± 0.66.
Next, TVNCFDYSVSGVSSNRV: 0.882 ± 0.66.
Take SPESRRQWCL: the amyloid nucleation score result was “inactive”.
Regarding VTFLIMGWLRDRRV, the amyloid nucleation score was -0.563 ± 0.39.
With RYVGLGGFM the figure was -0.655 ± 0.46; with DLDVFYCWGAYLAEGDLVCE, 0.146 ± 0.41; with PLYLW, “inactive”.
With SITRKRVRRDAGGMVCGLVS the entry was “inactive”; with ILGVSMPPFYSV, -0.532 ± 0.84; with AGVNWASHWHMDHMSGFVEW, -0.684 ± 0.3.
Next, ISSLTV: -1.33 ± 0.68.
For the substance VHSCIYVSKTSLELARYQML, the amyloid nucleation score result is “inactive”.
Next, KQFDTSGLNVRRSCNRSRHM: 0.301 ± 0.56; SLISCEWSYTWCGKFVILLV: -0.707 ± 1.1.
Next, MLSYQR: “inactive”.
Regarding FGSFVFPCYAQPELIPFNLY, the amyloid nucleation score stood at 0.119 ± 0.72.
Take FMDDSSLFPSI: the amyloid nucleation score amounted to 0.569 ± 0.58.
Next, GACGGKFRVYGKGLILWVRS: 0.253 ± 0.37.
With FLMPCFMKVGFVREEPWWRR the figure was 0.096 ± 0.78; with MVMFHSSFLIDDTWICWNPF, 0.255 ± 0.47; with RKSAQYHG, “inactive”.
The substance DLRAVNLNSYSLLDSFTCFF yielded an amyloid nucleation score of 5.59 ± 0.06.
Next, SNGMRRLTKVDEHSL: 0.933 ± 0.54; DSELRMVISLYFCWLWSEWS: -0.623 ± 0.6.
With CYLLSRGYWSDMLGKWARGV, the amyloid nucleation score stood at 0.131 ± 0.54.
Next, RLVGGPRRASITKNWYTEK: -0.649 ± 0.73.
The substance YECGFLLSLVRATKLLNSAC returned an amyloid nucleation score of 0.146 ± 0.28.
Next, CHCCEVSWCSVWKVCIYCNI: 5 ± 0.088; IADGTLTVSL: 0.609 ± 0.32; LYSKGIPMACAQVVVYLNER: 6.49 ± 0.055.
VTVEIAWKMA came in with an amyloid nucleation score of 0.054 ± 0.67.
Next, FLEWAPSLNKLHRF: 0.768 ± 0.17; SSSLSKLVFWKYFCIDEGLS: 0.491 ± 0.53; CWIFQDCCQKDCMLFLPCCK: 0.554 ± 0.26.
Next, LGIAGER: 0.294 ± 0.33.
In the case of IEGWHTRVHRRTLIVMCLIG, the amyloid nucleation score stood at 1.09 ± 0.41.
With LCNKVWFAECQIHSRQG the figure was -0.144 ± 0.83.
Next, GQDAPEDAMSVRRILVSGLA: -0.109 ± 1.5; APCQYSFVSVSYSTVNWLMT: 8.933 ± 0.071.
HWLRYGDRIHMDNYNTSFFV displayed an amyloid nucleation score of 1.42 ± 0.12.
In the case of IGPGLSSR, the amyloid nucleation score was -0.521 ± 0.63.
Consider YLVWCIESITLGFMGELGAR, for which the amyloid nucleation score was 0.199 ± 0.57.
With YGFLVKS the figure was 0.1 ± 0.9.
Next, GFSSVPEGDSINPR: -0.09 ± 0.54.
Substance TGKSRDNRNVDGNL came in with an amyloid nucleation score of 0.063 ± 0.38.
Next, DNGLGKCSMQPEWHRAWGAR: 2.06 ± 0.13; SVGQRSRAEPDVKLCSGNLG: “inactive”.
Next, LIKSMDFLGRM: 0.117 ± 0.69; YVASLYQYFYLLIKIDCVFF: -0.824 ± 0.97.
For the substance RRRLPGSSPISLGYFSSSLA, the amyloid nucleation score is -0.509 ± 1.7.
Next, VFVSIMWQY: 1.82 ± 0.51.
Substance YTCCWTVG showed an amyloid nucleation score of 4.18 ± 0.08.
Next, LRNHASVPV: 0.084 ± 0.4; PGSVDCTVGD: -0.048 ± 0.65.
With AKRLFRRSTLMTSNTGLAVL the figure was 0.287 ± 1.4.
With FSHKRW the figure was -0.479 ± 0.48; with WMEVHWGGNVSLDSSYMELF, -0.044 ± 1.1.
As to SFEDLEM, the amyloid nucleation score turned out to be 0.457 ± 0.85.
With DSRDVNSSLIIRVRVEDGTL the figure was -1.2 ± 1.5; with KFIEMRRNKSPKHLPAWASD, 0.911 ± 0.54.
Next, VRAELFLTLPKGTQADALAV: -0.166 ± 0.67; DPTTLYIEV: 1.29 ± 0.39; SLMVSRGDTCG: -0.181 ± 0.35.
Next, LKFMSPSLSTIDRDIK: 0.156 ± 0.27; SLYGYCLYARMCTASSKKLI: 1.09 ± 0.28; RLICGPWNYCCQYKYNHLVL: 4 ± 0.12.
Substance LYRSGSPRTGWKLMSSSARR yielded an amyloid nucleation score of 7.525 ± 0.07.
With AYNIVDRSYLGSCKPESFVG the figure was 0.469 ± 0.44.
Next, HLVRLTFVMLFGGNLWISS: 0.91 ± 0.26; NARVILCVVFILGAMTRLGL: -0.549 ± 0.65; RLGRGKMKGWLSMLCRDCAL: -0.918 ± 0.65.
As to LYWFAAWLATYIYAW, the amyloid nucleation score was 0.109 ± 0.48.
SLIKGSTKLPR had an amyloid nucleation score of 0.273 ± 0.6.
Next, PKLRKLVSFYVSYIPGGGYG: -0.106 ± 0.93; GARQHATVAREAATLCF: 0.094 ± 1.4; MFCRVVRGGCGSSIGC: 0.249 ± 0.79.
As for FFTHCMWD, the amyloid nucleation score is -1.05 ± 1.1.
Next, YNGLGIEETNWAARGS: -1.12 ± 1.1; SAWCRSIM: 0.952 ± 0.27; YMGGEWKD: 6.801 ± 0.06.
Next, FNMIVSYAFVAFIVNIKVEI: 1.99 ± 0.12; NFIRKPFGFIY: -0.282 ± 1.7; KSKLMNKQFSRLTLVSTESR: 3.86 ± 0.13.
Consider IWCVFIQWLCSRRVERQSCR, for which the amyloid nucleation score is 4.31 ± 0.11.
With SLVYYLGEWV the figure was -0.366 ± 0.34; with IGYCSSGQNDPNIASLYCFH, -1.19 ± 0.81.
With TTFFFDF the figure was 2.59 ± 0.18.
Next, VYVDSCCHMF: 7.508 ± 0.069; AYYVRGRNLLFVTIGYGYLC: -1 ± 1.
The substance AIYSPYRNLER registered an amyloid nucleation score of 0.233 ± 0.42.
With VFGKITSWWFRTIDFWERRI the figure was -0.428 ± 0.64; with MGRRRAPRGGFILRYGCPCR, -0.039 ± 0.73.
Consider IYFGFCRD, for which the amyloid nucleation score amounted to 2.02 ± 0.089.
With YFSQPMLLRSSGRAVNSRMR the figure was -1.66 ± 2.4.
With RGAPKLCTDIDWARYFNRGL the figure was -0.407 ± 0.4; with NLEHKCVFVLHMKTLIISQP, 0.664 ± 1.2.
With DPVYGLYGALFAMNPFMDYL the figure was -0.427 ± 0.56.
Regarding NVGLGRWSFCGSMSVK, the amyloid nucleation score was -0.688 ± 0.58.
Take YTAMFCNSVLHADGLPQLMG: the amyloid nucleation score was -0.033 ± 0.97.
With RQSSSSHSMNSGQNILPFRL the figure was 0.279 ± 0.93; with ENSPLK, 0.493 ± 0.4.
Next, SKGPWGLY: -0.517 ± 1.1.
With GFIKPILEQGRYHNESRVLL the figure was 0.243 ± 0.58; with YWIDR, -0.281 ± 0.42.
As to LFIVSNFLWLIPKWTNSAKF, the amyloid nucleation score was -1.66 ± 1.4.
Next, VWVKSHLY: -0.537 ± 0.25; MSLMSPAYNATNYWAVWRHK: -0.029 ± 0.27.
With ELSLRSSISVGEPVRDP the figure was 1.14 ± 0.6; with NMKRQRAHPMFS, -0.707 ± 0.45; with VFTGLLLL, -0.034 ± 0.36.
Next, VKLSMLWLMARLWGRLTCSG: -0.293 ± 0.47; YNLDDILPLHIEGRFNRDIA: “inactive”; YHWILKSCLWMVWSSVYLPI: -0.663 ± 1.7.
RFNLCNGFMGIAKNCICIWT came in with an amyloid nucleation score of 1.41 ± 0.45.
Next, LKICLIGTNCMSNV: -0.234 ± 0.78; YKSISSDSAKWFVMGLNGLV: -1.6 ± 1.1; SFRKRQVVLVSANNDSVWKC: -0.097 ± 0.57.

Source of the values: the supplement of paper PMC12042874.
